From paper PMC8888459 (2022)

B2: Yah1-GST fusion protein (natural protein)
chain: IAAHLLRTSPSLLTRTTTTTRFLPFSTSSFLNHGHLKKPKPGEELKITFILKDGSQKTYEVCEGETILDIAQGHNLDMEGACGGSCACSTCHVIVDPDYYDALPEPEDDENDMLDLAYGLTETSRLGCQIKMSKDIDGIRVALPQMTRNVNNNDFS

What was measured:
Yah1-GST fusion protein [1] = molecular target: B2; assay: BLI; KD1 of 2:1 heterogeneous ligand fit (38%)
Yah1-GST fusion protein [2] = molecular target: B2; assay: BLI; anaerobic, reduced Yah1; kd2 of 2:1 fit, second site
Yah1-GST fusion protein [3] = molecular target: B2; assay: BLI; anaerobic, reduced Yah1 (Fig. 6C); KD2 of 2:1 fit (55%), second site
Yah1-GST fusion protein [4] = molecular target: B2; assay: BLI; anaerobic, reduced Yah1; kd1 of 2:1 fit
Yah1-GST fusion protein [5] = molecular target: B2; assay: BLI; anaerobic, reduced Yah1 (Fig. 6C); kd1 of 2:1 fit
Yah1-GST fusion protein [6] = molecular target: B2; assay: BLI; anaerobic, reduced Yah1 (Fig. 6C); KD1 of 2:1 fit (45%)
Yah1-GST fusion protein [7] = molecular target: B2; assay: BLI; kd1 of 2:1 fit
Yah1-GST fusion protein [8] = molecular target: B2; assay: BLI; KD2 of 2:1 heterogeneous ligand fit (62%), second site
Yah1-GST fusion protein [9] = molecular target: B2; assay: BLI; anaerobic, reduced Yah1; KD1 of 2:1 fit (37%)
Yah1-GST fusion protein [10] = molecular target: B2; assay: BLI; anaerobic, reduced Yah1 (Fig. 6C); kd2 of 2:1 fit, second site
Yah1-GST fusion protein [11] = molecular target: B2; assay: BLI; kd2 of 2:1 fit, second site
Yah1-GST fusion protein [12] = molecular target: B2; assay: BLI; anaerobic, reduced Yah1; KD2 of 2:1 fit (63%), second site
[13] = molecular target: T1, NIA–Isu1 complex with C. thermophilum Isu1 (S. cerevisiae | E. coli (endogenous in …, UniProt P25374 37-497; Q6Q560 1-94; P0A6A8 1-78); assay: BLI; kd1 of 2:1 fit
[14] = molecular target: T1, NIA–Isu1 complex with C. thermophilum …; assay: BLI; kd2 of 2:1 fit, second site
[15] = molecular target: T1, NIA–Isu1 complex with C. thermophilum …; assay: BLI; KD1 of 2:1 heterogeneous ligand fit (43%)
[16] = molecular target: T1, NIA–Isu1 complex with C. thermophilum …; assay: BLI; KD2 of 2:1 heterogeneous ligand fit (54%), second site
[17] = molecular target: T1, NIA–Isu1 complex with C. thermophilum …; assay: BLI; KD2 of 2:1 heterogeneous ligand fit (57%), second site
[18] = molecular target: T1, NIA–Isu1 complex with C. thermophilum …; assay: BLI; KD1 of 2:1 heterogeneous ligand fit (46%)
[19] = molecular target: T1, NIA–Isu1 complex with C. thermophilum …; assay: BLI; kd2 of 2:1 fit, second site; remark: listed apart in the source
[20] = molecular target: T1, NIA–Isu1 complex with C. thermophilum …; assay: BLI; kd1 of 2:1 fit; remark: listed apart in the source
[21] = molecular target: T2, NIA complex (Nfs1–Isd11–ACPEc) (S. cerevisiae | E. coli (endogenous in …, UniProt P25374 37-497; Q6Q560 1-94; P0A6A8 1-78); assay: BLI; KD2 of 2:1 heterogeneous ligand fit (39%), second site
T2 chain 1: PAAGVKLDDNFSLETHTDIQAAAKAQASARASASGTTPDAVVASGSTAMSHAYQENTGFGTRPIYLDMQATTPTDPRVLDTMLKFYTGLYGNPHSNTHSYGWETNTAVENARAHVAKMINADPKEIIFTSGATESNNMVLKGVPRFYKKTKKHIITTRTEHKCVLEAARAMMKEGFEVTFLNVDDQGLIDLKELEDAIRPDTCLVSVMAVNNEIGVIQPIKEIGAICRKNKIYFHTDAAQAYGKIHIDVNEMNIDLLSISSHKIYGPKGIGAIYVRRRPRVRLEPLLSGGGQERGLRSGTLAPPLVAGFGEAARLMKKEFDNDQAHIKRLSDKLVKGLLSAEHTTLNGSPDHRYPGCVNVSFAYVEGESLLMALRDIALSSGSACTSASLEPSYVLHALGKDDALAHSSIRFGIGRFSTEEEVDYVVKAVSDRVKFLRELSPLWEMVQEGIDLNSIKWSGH
T2 chain 2: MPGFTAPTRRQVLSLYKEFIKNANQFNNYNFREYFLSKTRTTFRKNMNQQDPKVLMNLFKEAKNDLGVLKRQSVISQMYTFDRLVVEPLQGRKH
T2 chain 3: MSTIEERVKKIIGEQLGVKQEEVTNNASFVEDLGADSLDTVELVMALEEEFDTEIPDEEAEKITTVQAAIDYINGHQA

[22] = molecular target: T2, NIA complex (Nfs1–Isd11–ACPEc); assay: BLI; kd1 of 2:1 fit
[23] = molecular target: T2, NIA complex (Nfs1–Isd11–ACPEc); assay: BLI; kd2 of 2:1 fit, second site
[24] = molecular target: T2, NIA complex (Nfs1–Isd11–ACPEc); assay: BLI; KD1 of 2:1 heterogeneous ligand fit (61%)

B1: NIA–Isu1 complex with S. cerevisiae Isu1 (complex)
chain 1: PAAGVKLDDNFSLETHTDIQAAAKAQASARASASGTTPDAVVASGSTAMSHAYQENTGFGTRPIYLDMQATTPTDPRVLDTMLKFYTGLYGNPHSNTHSYGWETNTAVENARAHVAKMINADPKEIIFTSGATESNNMVLKGVPRFYKKTKKHIITTRTEHKCVLEAARAMMKEGFEVTFLNVDDQGLIDLKELEDAIRPDTCLVSVMAVNNEIGVIQPIKEIGAICRKNKIYFHTDAAQAYGKIHIDVNEMNIDLLSISSHKIYGPKGIGAIYVRRRPRVRLEPLLSGGGQERGLRSGTLAPPLVAGFGEAARLMKKEFDNDQAHIKRLSDKLVKGLLSAEHTTLNGSPDHRYPGCVNVSFAYVEGESLLMALRDIALSSGSACTSASLEPSYVLHALGKDDALAHSSIRFGIGRFSTEEEVDYVVKAVSDRVKFLRELSPLWEMVQEGIDLNSIKWSGH
chain 2: MPGFTAPTRRQVLSLYKEFIKNANQFNNYNFREYFLSKTRTTFRKNMNQQDPKVLMNLFKEAKNDLGVLKRQSVISQMYTFDRLVVEPLQGRKH
chain 3: MSTIEERVKKIIGEQLGVKQEEVTNNASFVEDLGADSLDTVELVMALEEEFDTEIPDEEAEKITTVQAAIDYINGHQA
chain 4: SSITKRLYHPKVIEHYTHPRNVGSLDKKLPNVGTGLVGAPACGDVMRLQIKVNDSTGVIEDVKFKTFGCGSAIASSSYMTELVQGMTLDDAAKIKNTEIAKELSLPPVKLHCSMLAEDAIKAAIKDYKSKRNTPTMLS
Binder B1 has a Kd (Yah1-GST fusion protein [1]) of 325 nM, a koff (Yah1-GST fusion protein [2]) of 0.00421 s⁻¹ and a Kd (Yah1-GST fusion protein [3]) of 19.2 nM. The koff (Yah1-GST fusion protein [4]) was 4.05e-07 s⁻¹, the koff (Yah1-GST fusion protein [5]) was 4.99e-07 s⁻¹ and the Kd (Yah1-GST fusion protein [6]) was 0.02 nM. The koff (Yah1-GST fusion protein [7]) was 0.000977 s⁻¹, the Kd (Yah1-GST fusion protein [8]) was 660 nM and the Kd (Yah1-GST fusion protein [9]) was 0.0165 nM. It also gave a koff (Yah1-GST fusion protein [10]) of 0.00777 s⁻¹, a koff (Yah1-GST fusion protein [11]) of 0.0375 s⁻¹ and a Kd (Yah1-GST fusion protein [12]) of 15.3 nM.

B2 was tested, and the koff [13] was 0.00118 s⁻¹, the koff [14] was 0.0403 s⁻¹ and the Kd [15] was 184 nM. It also gave a Kd [16] of 212 nM, a Kd [17] of 800 nM and a Kd [18] of 228 nM. It also gave a koff [19] of 0.109 s⁻¹ and a koff [20] of 0.00167 s⁻¹.

B3: Yah1 (untagged, holo) (natural protein)
chain: IAAHLLRTSPSLLTRTTTTTRFLPFSTSSFLNHGHLKKPKPGEELKITFILKDGSQKTYEVCEGETILDIAQGHNLDMEGACGGSCACSTCHVIVDPDYYDALPEPEDDENDMLDLAYGLTETSRLGCQIKMSKDIDGIRVALPQMTRNVNNNDFS
For B3, the Kd [21] was 544 nM, the koff [22] was 2.08e-07 s⁻¹ and the koff [23] was 0.00156 s⁻¹. For the same binder, the Kd [24] was 0.307 nM.
